Changes are numbered by the printed parent chain.

This passage reports Kd results from PMC4946995 (Cell, 2016).

One assay addresses Hrd1-SBP (S. cerevisiae) (UniProt Q08109). The assay is described as follows: pull-down.
Another assay deals with T1, Hrd1-SBP (S. cerevisiae, UniProt Q08109 1-551).
T1 sequence (looked up): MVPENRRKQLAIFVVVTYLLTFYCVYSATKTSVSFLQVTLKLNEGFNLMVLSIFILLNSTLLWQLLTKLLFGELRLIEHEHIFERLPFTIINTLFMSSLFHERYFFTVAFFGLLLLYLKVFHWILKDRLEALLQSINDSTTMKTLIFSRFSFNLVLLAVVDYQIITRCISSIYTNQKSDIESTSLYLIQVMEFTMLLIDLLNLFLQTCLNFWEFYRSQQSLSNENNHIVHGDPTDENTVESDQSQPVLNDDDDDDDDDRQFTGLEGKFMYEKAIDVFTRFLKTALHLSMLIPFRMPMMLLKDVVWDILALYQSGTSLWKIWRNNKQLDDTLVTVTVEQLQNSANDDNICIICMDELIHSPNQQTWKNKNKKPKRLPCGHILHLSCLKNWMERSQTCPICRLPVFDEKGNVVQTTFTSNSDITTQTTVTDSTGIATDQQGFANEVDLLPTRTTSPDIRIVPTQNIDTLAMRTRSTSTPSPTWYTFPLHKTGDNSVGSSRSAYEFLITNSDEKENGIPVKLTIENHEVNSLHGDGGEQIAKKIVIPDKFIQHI
The assay is described as follows: pull-down.

Broadly, the Kd is the constant that tells how readily two partners part at equilibrium. The low end stands for tighter binding, the high end for weaker binding. As for “misfolded carboxypeptidase Y (CPY*) (from UniProt P00729 21-532) (natural protein)”, the Kd with Hrd1-SBP (S. cerevisiae) amounted to 20 nM.

B1: CPY-TM (other)
chain: ISLQRPLGLDKDVLLQAAEKFGLDLDLDHLLKELDSNVLDAWAQIEHLYPNQVMSLETSTKPKFPEAIKTKKDWDFVVKNDAIENYQLRVNKIKDPKILGIDPNVTQYTGYLDVEDEDKHFFFWTFESRNDPAKDPVILWLNGGPGCSSLTGLFFELGPSSIGPDLKPIGNPYSWNSNATVIFLDQPVNVGFSYSGSSGVSNTVAAGKDVYNFLELFFDQFPEYVNKGQDFHIAGESYAGHYIPVFASEILSHKDRNFNLTSVLIGNGLTDPLTQYNYYEPMACGEGGEPSVLPSEECSAMEDSLERCLGLIESCYDSQSVWSCVPATIYCNNAQLAPYQRTGRNVYDIRKDCEGGNLCYPTLQDIDDYLNQDYVKEAVGAEVDHYESCNFDINRNFLFAGDWMKPYHTAVTDLLNQDLPILVYAGDKDFICNWLGNKAWTDVLPWKYDEEFASQKVRNWTASITDEVAGEVKSYKHFTYLRVFNGGHMVPFDVPENALSMVNEWIHGGFSLNYGIFICYIAFNYIAGVFFYWLA
modifications: DyLight800 at the C-terminus, attached with sortase (GGGC-coupled fluorophore)
In turn, B1 gave a Kd with Hrd1-SBP of around 120 nM.

B2: CPY*-TM2 (other)
chain: ISLQRPLGLDKDVLLQAAEKFGLDLDLDHLLKELDSNVLDAWAQIEHLYPNQVMSLETSTKPKFPEAIKTKKDWDFVVKNDAIENYQLRVNKIKDPKILGIDPNVTQYTGYLDVEDEDKHFFFWTFESRNDPAKDPVILWLNGGPGCSSLTGLFFELGPSSIGPDLKPIGNPYSWNSNATVIFLDQPVNVGFSYSGSSGVSNTVAAGKDVYNFLELFFDQFPEYVNKGQDFHIARESYAGHYIPVFASEILSHKDRNFNLTSVLIGNGLTDPLTQYNYYEPMACGEGGEPSVLPSEECSAMEDSLERCLGLIESCYDSQSVWSCVPATIYCNNAQLAPYQRTGRNVYDIRKDCEGGNLCYPTLQDIDDYLNQDYVKEAVGAEVDHYESCNFDINRNFLFAGDWMKPYHTAVTDLLNQDLPILVYAGDKDFICNWLGNKAWTDVLPWKYDEEFASQKVRNWTASITDEVAGEVKSYKHFTYLRVFNGGHMVPFDVPENALSMVNEWIHGGFSLMLLFFWIPLTLVLLLCFTLSNL
modifications: DyLight800 at the C-terminus, attached with sortase (GGGC-coupled fluorophore)
Consider B2, for which the Kd with Hrd1-SBP is around 30 nM.

B3: CPY-TM2 (other)
chain: B2 chain with R235G
modifications: DyLight800 at the C-terminus, attached with sortase (GGGC-coupled fluorophore)
Molecule B3 returned a Kd with Hrd1-SBP of around 110 nM.
